What is called Kd is a measure of binding affinity in units of concentration. A lower Kd goes with tighter binding.

Holding throughout (experiment): high-throughput RNA pulldown from lysate on Ni-NTA beads; HRP: 50 mM Tris pH 8, 150 mM NaCl, 1 mM beta-mercaptoethanol, 50 ug/ml BSA, 3 ug/ml yeast RNA, 0.5% heparin; ITC and FP: Tris pH 8, 200 mM KCl, 5% glycerol; MST: 50 mM Tris pH 8, 200 mM NaCl, 1 mM DTT, BSA, heparin, 0.05% Tween 20
Holding throughout (conditions): tags: N-terminal His-eGFP

Series [1] addresses T1, GFP-9S library array, motif 4 ND N98P;D124F (synthetic construct, N98P;D124F).
T1 chain: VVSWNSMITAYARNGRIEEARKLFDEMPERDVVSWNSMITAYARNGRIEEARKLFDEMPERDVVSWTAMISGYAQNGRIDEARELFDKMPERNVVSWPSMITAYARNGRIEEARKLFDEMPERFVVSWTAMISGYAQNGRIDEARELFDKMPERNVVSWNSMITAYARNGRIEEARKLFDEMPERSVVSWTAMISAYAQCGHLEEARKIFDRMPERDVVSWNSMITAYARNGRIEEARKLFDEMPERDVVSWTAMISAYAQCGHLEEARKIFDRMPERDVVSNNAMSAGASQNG

Series [2] addresses T2, GFP-9S library array, motif 4 ND N98H;D124V (synthetic construct, N98H;D124V).
T2 chain: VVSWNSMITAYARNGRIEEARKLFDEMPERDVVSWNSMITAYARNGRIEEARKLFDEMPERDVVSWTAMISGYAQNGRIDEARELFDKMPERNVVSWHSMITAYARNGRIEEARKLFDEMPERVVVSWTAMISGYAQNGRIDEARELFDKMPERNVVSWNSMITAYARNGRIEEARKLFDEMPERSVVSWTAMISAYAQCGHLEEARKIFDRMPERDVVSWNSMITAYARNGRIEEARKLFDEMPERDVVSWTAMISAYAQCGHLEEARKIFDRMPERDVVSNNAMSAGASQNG

Series [3] addresses T3, GFP-9S library array, motif 4 ND N98G;D124G (synthetic construct, N98G;D124G).
T3 chain: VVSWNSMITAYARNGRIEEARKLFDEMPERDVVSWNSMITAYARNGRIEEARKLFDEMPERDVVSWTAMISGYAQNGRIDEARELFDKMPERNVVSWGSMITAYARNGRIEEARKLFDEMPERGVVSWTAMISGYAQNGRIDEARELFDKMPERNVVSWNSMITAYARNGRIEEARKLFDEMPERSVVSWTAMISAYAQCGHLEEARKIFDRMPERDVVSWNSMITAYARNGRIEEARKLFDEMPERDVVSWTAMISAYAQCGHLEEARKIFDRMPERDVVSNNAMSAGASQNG

For series [4], the target named is T4, GFP-9S library array, motif 4 ND N98R;D124S (synthetic construct, N98R;D124S).
T4 chain: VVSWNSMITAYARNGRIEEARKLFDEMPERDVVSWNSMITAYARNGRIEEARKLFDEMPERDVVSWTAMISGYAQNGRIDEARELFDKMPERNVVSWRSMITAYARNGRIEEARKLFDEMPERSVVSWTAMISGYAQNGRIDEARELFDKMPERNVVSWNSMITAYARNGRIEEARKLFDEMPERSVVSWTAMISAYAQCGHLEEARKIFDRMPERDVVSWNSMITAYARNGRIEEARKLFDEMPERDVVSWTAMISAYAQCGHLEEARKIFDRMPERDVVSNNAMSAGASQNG

The target in series [5] is T5, GFP-9S library array, motif 4 ND N98P;D124T (synthetic construct, N98P;D124T).
T5 chain: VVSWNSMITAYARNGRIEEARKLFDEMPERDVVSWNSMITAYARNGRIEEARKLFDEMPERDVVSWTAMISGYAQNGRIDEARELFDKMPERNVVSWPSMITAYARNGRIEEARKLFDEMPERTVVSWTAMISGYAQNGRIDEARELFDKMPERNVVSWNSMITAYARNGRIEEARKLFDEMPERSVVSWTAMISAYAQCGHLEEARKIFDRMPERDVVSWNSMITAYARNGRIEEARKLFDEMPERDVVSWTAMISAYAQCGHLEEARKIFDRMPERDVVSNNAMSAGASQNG

B1: Cy5-rpoA (ssRNA)
RNA: AUUACACGUGA
Turning to B1, the Kd is 134 nM in series [1] (label: 5' Cy5); 81.3 nM in series [2] (label: 5' Cy5); 92 nM in series [3] (label: 5' Cy5); 72.7 nM in series [4] (label: 5' Cy5); 176 nM in series [5] (label: 5' Cy5).

B2: IR-rpoA-A (ssRNA)
RNA: AUUAAACGUGA
As to B2, the Kd in series [1] (label: 5' IRDye 800CW) amounted to 245 nM; in series [2] (label: 5' IRDye 800CW) it was 115 nM; in series [3] (label: 5' IRDye 800CW), 49.9 nM; in series [4] (label: 5' IRDye 800CW) it was 184 nM; in series [5] (label: 5' IRDye 800CW), 405 nM.

B3: IR-rpoA-U (ssRNA)
RNA: AUUAUACGUGA
For B3, the Kd in series [1] (label: 5' IRDye 800CW) was 290 nM; in series [2] (label: 5' IRDye 800CW) it was 57.3 nM; in series [3] (label: 5' IRDye 800CW) it was 95.3 nM; in series [4] (label: 5' IRDye 800CW) it was 88.9 nM; in series [5] (label: 5' IRDye 800CW), 179 nM.

B4: Cy5-rpoA-G (ssRNA)
RNA: AUUAGACGUGA
Regarding B4, the Kd in series [1] (label: 5' Cy5) worked out at 125 nM; in series [2] (label: 5' Cy5), 95.2 nM; in series [3] (label: 5' Cy5), 95.2 nM; in series [4] (label: 5' Cy5), 93.6 nM; in series [5] (label: 5' Cy5), 177 nM.
